Measurements taken from patent US20150203575A1 (Genentech, published 2015).

Columns and labels:
[1] = target: T1, LRRTM4 expressed on cells (human, UniProt Q86VH4 31-590); assay: flow cytometry, transfected 293T cells, 50 µg/ml
T1 construct: Clone of the Origene human cDNA library; also called Leucine rich repeat transmembrane neuronal 4

MAG expressed on cells [2] = target: T2, MAG expressed on cells (human, UniProt P20916 20-626); assay: flow cytometry, transfected 293T cells, 50 µg/ml
T2 construct: Clone of the Origene human cDNA library; also called Myelin associated glycoprotein; SIGLEC4A
T2 sequence: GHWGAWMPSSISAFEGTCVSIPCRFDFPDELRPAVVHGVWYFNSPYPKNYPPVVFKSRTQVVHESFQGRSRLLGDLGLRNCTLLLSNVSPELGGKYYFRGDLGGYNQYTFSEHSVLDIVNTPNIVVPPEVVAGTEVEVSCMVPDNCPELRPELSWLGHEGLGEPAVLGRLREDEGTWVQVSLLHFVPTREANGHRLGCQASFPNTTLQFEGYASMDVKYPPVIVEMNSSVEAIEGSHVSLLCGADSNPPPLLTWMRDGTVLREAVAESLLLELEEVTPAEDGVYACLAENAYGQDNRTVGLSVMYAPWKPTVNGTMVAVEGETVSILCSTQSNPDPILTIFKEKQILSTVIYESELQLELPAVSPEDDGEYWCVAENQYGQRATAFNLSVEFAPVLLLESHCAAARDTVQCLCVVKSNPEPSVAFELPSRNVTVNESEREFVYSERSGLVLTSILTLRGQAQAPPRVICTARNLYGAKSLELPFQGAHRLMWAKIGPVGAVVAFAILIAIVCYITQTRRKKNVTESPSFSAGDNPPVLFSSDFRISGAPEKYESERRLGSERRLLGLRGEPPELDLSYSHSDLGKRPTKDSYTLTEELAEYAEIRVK

[3] = target: T3, IL-2Ra expressed on cells (human, UniProt P01589 22-272); assay: flow cytometry, transfected 293T cells, 50 µg/ml
T3 construct: Clone of the Origene human cDNA library; also called Interleukin 2 receptor alpha
T3 sequence: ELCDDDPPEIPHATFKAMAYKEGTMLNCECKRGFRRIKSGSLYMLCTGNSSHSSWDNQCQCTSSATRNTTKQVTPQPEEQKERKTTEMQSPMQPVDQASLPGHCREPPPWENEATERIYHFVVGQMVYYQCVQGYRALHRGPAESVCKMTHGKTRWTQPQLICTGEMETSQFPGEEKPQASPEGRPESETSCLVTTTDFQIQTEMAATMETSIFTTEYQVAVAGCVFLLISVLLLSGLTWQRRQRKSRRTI

PSS8 expressed on cells [4] = target: T4, PSS8 expressed on cells (human, UniProt Q16651 30-343); assay: flow cytometry, transfected 293T cells, 50 µg/ml
T4 construct: Clone of the Origene human cDNA library; also called Protease serine 8; prostasin

BR3 expressed on cells [5] = target: T5, BR3 expressed on cells (human, UniProt Q96RJ3 1-184); assay: flow cytometry, transfected 293T cells, 50 µg/ml
T5 construct: Clone of the Origene human cDNA library
T5 sequence: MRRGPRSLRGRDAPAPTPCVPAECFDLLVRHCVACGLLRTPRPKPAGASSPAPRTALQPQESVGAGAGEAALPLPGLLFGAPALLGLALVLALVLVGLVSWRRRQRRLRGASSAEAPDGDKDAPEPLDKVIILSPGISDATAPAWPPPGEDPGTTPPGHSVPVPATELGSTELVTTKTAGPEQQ

[6] = target: T3, IL-2Ra expressed on cells; assay: flow cytometry, transfected 293T cells, 2 µg/ml
PSS8 expressed on cells [7] = target: T4, PSS8 expressed on cells; assay: flow cytometry, transfected 293T cells, 2 µg/ml
BR3 expressed on cells [8] = target: T5, BR3 expressed on cells; assay: flow cytometry, transfected 293T cells, 2 µg/ml
[9] = target: T6, human COLEC12 expressed on cells (human, UniProt Q5KU26 1-742); assay: flow cytometry, transfected 293T cells, 50 µg/ml; 293T-Neo: 1.5
T6 construct: also called hCOLEC12; C-terminal his tagged hCOLEC12

[10] = target: T7, human NPDC1 expressed on cells (human, UniProt Q9NQX5 35-325); assay: as above
T7 construct: also called hNPDC1; hNPCD1
T7 sequence: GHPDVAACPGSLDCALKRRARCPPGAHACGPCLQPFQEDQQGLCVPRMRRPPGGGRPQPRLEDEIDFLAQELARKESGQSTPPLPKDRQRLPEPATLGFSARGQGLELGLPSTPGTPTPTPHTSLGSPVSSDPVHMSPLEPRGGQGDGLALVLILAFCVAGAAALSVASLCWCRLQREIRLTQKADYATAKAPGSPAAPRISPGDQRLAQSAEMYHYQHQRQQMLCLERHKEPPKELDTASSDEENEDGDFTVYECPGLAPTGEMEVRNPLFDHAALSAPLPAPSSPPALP

[11] = target: T8, mouse CD99 expressed on 293T cells (mouse, UniProt Q8VCN6 29-175, sialylated O-glycans at Thr-45 and Thr-50 (cited as relevant for PILRα recognition)); assay: as above
T8 construct: whole, on cells; also called mCD99; mCD99 transfectants
T8 sequence (looked up): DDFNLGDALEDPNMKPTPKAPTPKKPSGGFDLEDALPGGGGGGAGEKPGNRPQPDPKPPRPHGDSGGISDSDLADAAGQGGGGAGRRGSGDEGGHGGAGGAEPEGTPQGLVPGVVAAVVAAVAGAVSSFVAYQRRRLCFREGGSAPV

hCOLEC12-his = target: T9, hCOLEC12-his (human, UniProt Q5KU26 59-742, sialylated O-glycans and N-glycans); assay: SPR equilibrium binding analysis, hCOLEC12 immobilised
T9 construct: Whole entry named; also called human COLEC12-his; hCOLEC12 (SPR); not shown: his tag

[12] = target: T6, human COLEC12 expressed on cells; assay: flow cytometry, transfected 293T cells, 2 µg/ml; 293T-Neo: 0.013
[13] = target: T7, human NPDC1 expressed on cells; assay: as above
[14] = target: T8, mouse CD99 expressed on 293T cells; assay: as above
[15] = target: T1, LRRTM4 expressed on cells; assay: flow cytometry, transfected 293T cells, 2 µg/ml
MAG expressed on cells [16] = target: T2, MAG expressed on cells; assay: flow cytometry, transfected 293T cells, 2 µg/ml
[17] = target: T7, human NPDC1 expressed on cells; assay: equilibrium competition radioligand assay: 125I-hPILRα-Fc against unlabeled hPILRα-Fc on 293T cells transiently expressing hNPDC1; average of two replicate assays
Description: Binding to mock transfectants (grey area) represents background binding. Transfected ligand expressing cells were gated and their binding to PILRα-Fc was shown. […] Binding to mock transfectants (grey area) represents background binding. PILRα positive cells were gated and ligand fusion staining was shown.

T1 sequence (Q86VH4 31-590 limits assumed): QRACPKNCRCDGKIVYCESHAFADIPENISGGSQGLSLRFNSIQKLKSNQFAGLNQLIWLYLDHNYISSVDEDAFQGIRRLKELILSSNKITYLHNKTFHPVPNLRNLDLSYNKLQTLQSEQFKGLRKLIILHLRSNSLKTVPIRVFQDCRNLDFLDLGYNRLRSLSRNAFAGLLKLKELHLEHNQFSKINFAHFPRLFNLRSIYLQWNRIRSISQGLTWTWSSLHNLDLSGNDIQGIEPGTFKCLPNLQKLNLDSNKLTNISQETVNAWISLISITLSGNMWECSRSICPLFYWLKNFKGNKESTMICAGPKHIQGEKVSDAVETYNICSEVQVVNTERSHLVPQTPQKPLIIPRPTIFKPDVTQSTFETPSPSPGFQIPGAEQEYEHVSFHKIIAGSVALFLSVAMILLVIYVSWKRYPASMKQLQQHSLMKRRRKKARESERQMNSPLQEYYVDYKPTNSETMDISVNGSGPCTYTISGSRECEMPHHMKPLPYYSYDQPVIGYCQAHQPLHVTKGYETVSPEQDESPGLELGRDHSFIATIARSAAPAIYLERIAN
T4 sequence (Q16651 30-343 limits assumed): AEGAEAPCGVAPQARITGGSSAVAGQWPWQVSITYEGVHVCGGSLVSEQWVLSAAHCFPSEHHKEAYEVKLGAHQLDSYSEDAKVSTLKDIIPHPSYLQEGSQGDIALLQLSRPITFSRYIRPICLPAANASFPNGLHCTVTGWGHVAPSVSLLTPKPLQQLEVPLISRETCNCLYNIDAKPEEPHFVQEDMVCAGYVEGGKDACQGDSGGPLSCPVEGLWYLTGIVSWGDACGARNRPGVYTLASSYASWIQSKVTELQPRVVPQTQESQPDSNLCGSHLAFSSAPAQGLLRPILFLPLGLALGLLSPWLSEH
T6 sequence (Q5KU26 whole entry S522P/G606S): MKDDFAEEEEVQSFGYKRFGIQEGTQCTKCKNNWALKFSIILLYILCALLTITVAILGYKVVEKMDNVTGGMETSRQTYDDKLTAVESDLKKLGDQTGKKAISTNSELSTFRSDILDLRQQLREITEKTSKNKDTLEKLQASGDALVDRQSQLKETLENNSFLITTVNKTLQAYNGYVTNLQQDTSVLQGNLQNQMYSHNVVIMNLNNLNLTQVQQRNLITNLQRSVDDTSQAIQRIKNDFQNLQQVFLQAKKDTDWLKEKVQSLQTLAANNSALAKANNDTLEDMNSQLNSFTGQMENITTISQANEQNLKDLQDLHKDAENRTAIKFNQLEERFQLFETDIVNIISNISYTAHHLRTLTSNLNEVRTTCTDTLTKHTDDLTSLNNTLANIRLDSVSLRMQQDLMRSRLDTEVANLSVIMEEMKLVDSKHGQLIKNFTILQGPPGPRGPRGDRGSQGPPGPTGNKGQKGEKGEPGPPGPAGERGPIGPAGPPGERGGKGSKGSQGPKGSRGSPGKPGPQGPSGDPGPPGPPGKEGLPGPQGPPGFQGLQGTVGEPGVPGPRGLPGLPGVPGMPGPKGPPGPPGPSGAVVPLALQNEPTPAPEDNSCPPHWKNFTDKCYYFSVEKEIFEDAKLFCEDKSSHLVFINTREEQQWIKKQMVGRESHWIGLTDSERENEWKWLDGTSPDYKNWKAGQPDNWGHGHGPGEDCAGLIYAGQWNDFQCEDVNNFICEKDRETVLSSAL
T9 sequence (Q5KU26 59-742 S522P/G606S limits assumed): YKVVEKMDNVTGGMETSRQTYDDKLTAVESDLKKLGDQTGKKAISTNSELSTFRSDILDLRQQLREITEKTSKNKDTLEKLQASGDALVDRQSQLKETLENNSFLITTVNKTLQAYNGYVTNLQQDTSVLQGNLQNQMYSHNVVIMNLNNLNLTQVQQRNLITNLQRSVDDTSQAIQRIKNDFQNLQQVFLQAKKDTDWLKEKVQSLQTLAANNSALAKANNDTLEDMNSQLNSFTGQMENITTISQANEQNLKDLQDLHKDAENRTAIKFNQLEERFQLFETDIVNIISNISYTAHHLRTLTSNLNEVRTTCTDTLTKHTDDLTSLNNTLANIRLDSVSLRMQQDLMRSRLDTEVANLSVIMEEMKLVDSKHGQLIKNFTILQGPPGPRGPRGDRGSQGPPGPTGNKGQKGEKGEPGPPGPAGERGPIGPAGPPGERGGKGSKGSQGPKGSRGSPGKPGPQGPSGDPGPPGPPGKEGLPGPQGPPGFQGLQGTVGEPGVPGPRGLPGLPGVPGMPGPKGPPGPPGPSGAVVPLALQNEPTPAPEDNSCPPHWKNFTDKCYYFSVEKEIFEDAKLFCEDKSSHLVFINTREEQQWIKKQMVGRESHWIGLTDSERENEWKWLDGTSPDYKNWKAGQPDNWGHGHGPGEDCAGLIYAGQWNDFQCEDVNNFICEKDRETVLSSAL

B1: hPILRα-Fc (Fc fusion)
chain: QPSGSTGSGPSYLYGVTQPKHLSASMGGSVEIPFSFYYPWELATAPDVRISWRRGHFHRQSFYSTRPPSIHKDYVNRLFLNWTEGQKSGFLRISNLQKQDQSVYFCRVELDTRSSGRQQWQSIEGTKLSITQAVTTTTQRPSSMTTTWRLSSTTTTTGLRVTQGKRRSDSWHISLETA
notes: also called human PILRα-Fc; WT hPILRα-Fc; not shown: Fc of mouse IgG2a (PILRα-mIgG2a, called PILRα-Fc)
% cells in lower right quadrant [1]: 46%
% cells in lower right quadrant (MAG expressed on cells [2]): 36.8%
% cells in lower right quadrant [3]: 64.4%
% cells in lower right quadrant (PSS8 expressed on cells [4]): 81%
% cells in lower right quadrant (BR3 expressed on cells [5]): 67.3%
% cells in lower right quadrant [6]: 6.39%
% cells in lower right quadrant (PSS8 expressed on cells [7]): 18.7%
% cells in lower right quadrant (BR3 expressed on cells [8]): 31.5%
% cells in lower right quadrant [9]: 42%
% cells in lower right quadrant [10]: 68.8%
% cells in lower right quadrant [11]: 70.8%
Kd (hCOLEC12-his): 1100 nM
% cells in lower right quadrant [12]: 0.014%
% cells in lower right quadrant [13]: 27.8%
% cells in lower right quadrant [14]: 23.4%
% cells in lower right quadrant [15]: 11.7%
% cells in lower right quadrant (MAG expressed on cells [16]): 2.31%
Kd [17]: 49 nM
